Laboratory results reported in article PMC12746902, “Pathogenic Gαo Mutants Drive Dominant GPCR Coupling in GNAO1 Encephalopathies” (The FASEB Journal, 2025).
One block for each molecule: values may come before it.

Legend:
[1] = biological target: M2 muscarinic acetylcholine receptor with C-terminal split-YFP fragment YN (M2R-YN) (UniProt P08172)
[2] = biological target: M2 muscarinic acetylcholine receptor with C-terminal split-YFP fragment YN (M2R-YN) (UniProt P08172); remark: listed apart in the source
[3] = biological target: T1, M2 muscarinic acetylcholine receptor with C-terminal split-YFP fragment YN (M2R-YN) (UniProt P08172 1-466); assay: cell-based or functional assay
T1 sequence (looked up): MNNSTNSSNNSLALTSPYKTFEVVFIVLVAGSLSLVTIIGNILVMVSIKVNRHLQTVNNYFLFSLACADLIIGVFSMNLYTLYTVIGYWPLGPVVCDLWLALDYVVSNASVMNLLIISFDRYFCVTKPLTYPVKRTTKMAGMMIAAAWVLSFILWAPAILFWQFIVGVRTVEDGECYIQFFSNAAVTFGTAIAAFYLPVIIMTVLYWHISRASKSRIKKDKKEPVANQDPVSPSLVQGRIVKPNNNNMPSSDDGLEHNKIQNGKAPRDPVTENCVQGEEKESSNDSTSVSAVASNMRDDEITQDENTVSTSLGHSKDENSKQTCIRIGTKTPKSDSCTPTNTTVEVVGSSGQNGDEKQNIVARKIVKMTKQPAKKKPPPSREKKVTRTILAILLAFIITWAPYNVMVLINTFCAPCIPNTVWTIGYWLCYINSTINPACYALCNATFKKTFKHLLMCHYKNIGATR

- reduction of ACh-mediated M2R phosphorylation (pT307/pS309 relative to total M2R) in immunoprecipitated split-YFP complexes, 100 μM ACh for 5 min [1]: > 90%
- reduction of ACh-mediated phosphorylation (pT307/pS309 relative to total receptor) of immunoprecipitated GFP-M2R with co-expressed UNTAGGED Gαo ins4A, 100 μM ACh for 5 min [2]: 95%
Molecule: Gαo ins4A (four-alanine insertion in the C-terminal α5-helix) with internal split-YFP fragment YC at Gly92 (from UniProt P09471 1-354) (natural protein)

- reduction of ACh-mediated phosphorylation (pT307/pS309 relative to total receptor) of immunoprecipitated GFP-M2R with co-expressed UNTAGGED Gαo insPQ, 100 μM ACh for 5 min [3]: 30%
B1: Gαo T241_N242insPQ with internal split-YFP fragment YC at Gly92 (natural protein, UniProt P09471 1-354, looked up)
chain: MGCTLSAEERAALERSKAIEKNLKEDGISAAKDVKLLLLGAGESGKSTIVKQMKIIHEDGFSGEDVKQYKPVVYSNTIQSLAAIVRAMDTLGIEYGDKERKADAKMVCDVVSRMEDTEPFSAELLSAMMRLWGDSGIQECFNRSREYQLNDSAKYYLDSLDRIGAADYQPTEQDILRTRVKTTGIVETHFTFKNLHFRLFDVGGQRSERKKWIHCFEDVTAIIFCVALSGYDQVLHEDETTPQNRMHESLMLFDSICNNKFFIDTSIILFLNKKDLFGEKIKKSPLTICFPEYTGPNTYEDAAAYIQAQFESKNRSPNKEIYCHMTCATDTNNIQVVFDAVTDIIIANNLRGCGLY
